Assays:
[1] = target: … peptide HLA-E single chain trimer (soluble, biotinylated) (human, biotin (AviTag)); test: SPR
[2] = target: CREB3L1_(419-427) HLA-E single chain trimer (soluble, biotinylated) (human, biotin (AviTag)); test: SPR
[3] = target: AKAP6_(388-396) HLA-E single chain trimer (soluble, biotinylated) (human, biotin (AviTag)); test: SPR
[4] = target: PISD_(55-63) HLA-E single chain trimer (soluble, biotinylated) (human, biotin (AviTag)); test: SPR
[5] = target: BFAR_(263-271) HLA-E single chain trimer (soluble, biotinylated) (human, biotin (AviTag)); test: SPR
[6] = target: GTF3C5_(293-301) HLA-E single chain trimer (soluble, biotinylated) (human, biotin (AviTag)); test: SPR; weak binder not approaching saturation, inexact

Binder	Kd [1]	Kd [2]	Kd [3]	Kd [4]	Kd [5]	Kd [6]
CD94/NKG2C single-chain fusion protein (human NKG2C ectodomain - GGSGGS - human CD94 ectodomain), produced in Hi5 cells for SPR (receptor) not shown	~23.8 µM	~9.8 µM	~15.6 µM	~16 µM	~1.8 µM	~92.4 µM
CD94/NKG2A single-chain fusion protein (human NKG2A ectodomain - GGSGGS - human CD94 ectodomain), produced in Hi5 cells for SPR (receptor) not shown	~8.9 µM	~3.3 µM	~4.1 µM	~12.1 µM	~0.8 µM	~28.1 µM
